We go through one molecule from paper PMC3737725 (Development (Cambridge, England), 2013).

In this experiment the target is T1, murine MBP::KSR1 (mouse, UniProt Q61097 1-873).
T1 sequence (looked up): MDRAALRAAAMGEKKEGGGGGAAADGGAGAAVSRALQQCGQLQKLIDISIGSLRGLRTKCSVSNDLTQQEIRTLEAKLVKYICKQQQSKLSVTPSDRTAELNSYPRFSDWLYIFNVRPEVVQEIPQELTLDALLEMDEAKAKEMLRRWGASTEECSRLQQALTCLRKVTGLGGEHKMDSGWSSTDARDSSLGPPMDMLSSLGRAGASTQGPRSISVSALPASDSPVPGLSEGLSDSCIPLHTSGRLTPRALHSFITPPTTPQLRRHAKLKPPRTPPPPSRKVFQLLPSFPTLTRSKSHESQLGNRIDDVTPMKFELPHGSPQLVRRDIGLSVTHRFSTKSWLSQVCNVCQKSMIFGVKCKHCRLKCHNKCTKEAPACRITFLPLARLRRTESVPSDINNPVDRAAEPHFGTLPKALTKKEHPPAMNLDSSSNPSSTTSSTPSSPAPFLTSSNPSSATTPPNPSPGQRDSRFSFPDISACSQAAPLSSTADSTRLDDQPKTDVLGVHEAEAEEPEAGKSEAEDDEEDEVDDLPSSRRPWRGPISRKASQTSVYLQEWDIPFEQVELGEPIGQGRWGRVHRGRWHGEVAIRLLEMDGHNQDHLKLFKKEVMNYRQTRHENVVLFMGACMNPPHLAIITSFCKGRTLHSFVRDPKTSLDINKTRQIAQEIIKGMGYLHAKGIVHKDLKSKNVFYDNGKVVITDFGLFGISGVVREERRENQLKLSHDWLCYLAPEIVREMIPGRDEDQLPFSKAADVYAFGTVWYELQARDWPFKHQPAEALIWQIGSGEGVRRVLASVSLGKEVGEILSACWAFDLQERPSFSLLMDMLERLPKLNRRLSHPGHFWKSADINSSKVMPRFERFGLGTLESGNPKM
As to the kind of experiment: pull-down.

B1: GST::NDK-1::His6 (natural protein, C. elegans, UniProt Q93576 1-153, looked up)
chain: MSNTERTFIAIKPDGVHRGLVGKIIARFEERGYKLVALKQMTASKAHLEVHYQDLKDKPFFPSLIEYMSSGPVVAMVWQGLDVVKQGRSMLGATNPLASAPGTIRGDFCIQTGRNICHGSDAVDSANREIAHWFKQEEINDYASPFINSWVYE
B1: the binding result is “binds”.
